Patent publication US20260034194A1, “PHARMACEUTICAL COMPOSITIONS AND METHODS OF TREATING PSP” (priority 2022, published 2026)
“Also recorded” adds a separate entry of the source. Like-named read-outs stand apart in the source and are kept apart here.

Legend:
[1] = Thermofluor (TF) assay of STX binding; conditions: 1.1 μM Sxph, 0-20 μM STX; ΔTm at 20 μM toxin
[2] = type: binding
[3] = type: binding; conditions: ITC, STX, 25° C.
Method: . […] In almost all mutants, binding affinity loss correlated with a reduction in enthalpy, consistent with a loss of interactions (Table S2). […]. […] Together, these three assays (FIGS. 1E and G) provide a robust and versatile suite of options for characterizing STX:Sxph interactions.
ITC measurements were performed at 25° C. using a MicroCal PEAQ-ITC calorimeter (Malvern Panalytical). […]. This STX stock was diluted with the SEC buffer to prepare 100 μM or 300 μM STX solutions having a final buffer composition of 135 mM NaCl, 9 mM HEPES, pH 7.4. […]. The calorimetric experiment settings were: reference power, 5 μcal/s; spacing between injections, 150 s; stir speed 750 rpm; and feedback mode, high. Data were analyzed using MicroCal PEAQ-ITC Analysis Software (Malvern Panalytical) using a single binding site model. The heat of dilution from titrations of 100 μM STX in 135 mM NaCl, 9 mM HEPES, pH 7.4 into 135 mM NaCl, 9 mM HEPES, pH 7.4 was subtracted from each experiment to correct the baseline.

[4] = test system: STX poisoning in female CD-1 mice; type: in vivo; conditions: RcSxph:STX 2:1 molar ratio, 30 nmoles/Kg STX, 60 nmoles/Kg RcSxph, IP, observed up to one hour
[5] = test system: TTX poisoning in female CD-1 mice; conditions: mouse, in vivo, ip
female CD-1 mice = conditions: 60 nmoles/Kg RcSxph, IP, observed up to one hour
[6] = read-out: RcSxph affinity for STX; prior radioligand assay; cited from earlier work
[7] = type: binding; conditions: for Kd: FP
[8] = test system: Phyllobates terribilis NaV1.4 (PtNaV1.4); assay: Two-electrode voltage clamp: Sxph rescue of PtNaV1.4 from STX block in Xenopus oocytes; type: cell-based; conditions: [Sxph]:[STX] ratio, 100 nM STX, PtNaV1.4 in Xenopus oocytes

B1: RcSxph: Rana (Lithobates) catesbeianus (American bullfrog) saxiphilin, SEQ ID NO: 1 (protein)
chain: MAPTFQTALFFTIISLSFAAPNAKQVRWCAISDLEQKKCNDLVGSCNVPDITLVCVLRSSTEDCMTAIKDGQADAMFLDSGEVYEASKDPYNLKPIIAEPYSSNRDLQKCLKERQQALAKKMIGHYIPQCDEKGNYQPQQCHGSTGHCWCVNAMGEKISGTNTPPGQTRATCERHELPKCLKERQVALGGDEKVLGRFVPQCDEKGNYEPQQFHGSTGYSWCVNAIGEEIAGTKTPPGKIPATCQKHDLVTTCHYAVAMVKKSSAFQFNQLKGKRSCHSGVSKTDGWKALVTVLVEKKLLSWDGPAKESIQRAMSKFFSVSCIPGATQTNLCKQCKGEEGKNCKNSHDEPYYGNYGAFRCLKEDMGDVAFLRSTALSDEHSEVYELLCPDNTRKPLNKYKECNLGTVPAGTVVTRKISDKTEDINNFLMEAQKRQCKLFSSAHGKDLMFDDSTLQLALLSSEVDAFLYLGVKLFHAMKALTGDAHLPSKNKVRWCTINKLEKMKCDDWSAVSGGAIACTEASCPKGCVKQILKGEADAVKLEVQYMYEALMCGLLPAVEEYHNKDDFGPCKTPGSPYTDFGTLRAVALVKKSNKDINWNNIKGKKSCHTGVGDIAGWVIPVSLIRRQNDNSDIDSFFGESCAPGSDTKSNLCKLCIGDPKNSAANTKCSLSDKEAYYGNQGAFRCLVEKGDVAFVPHTVVFENTDGKNPAVWAKNLKSEDFELLCLDGSRAPVSNYKSCKLSGIPPPAIVTREESISDVVRIVANQQSLYGRKGFEKDMFQLFSSNKGNNLLFNDNTQCLITFDRQPKDIMEDYFGKPYYTTVYGASRSAMSSELISACTIKHC
- ΔTm (STX-induced change of melting temperature) [1]: 3.6 °C
- ΔTm (TTX-induced change of melting temperature) [2]: 0.3 °C
- Kd [3]: 0.0012 ± 0.0008 µM
- ΔH [3]: -16.1 ± 0.2 kcal/mol
- ΔS (cal mol^−1 K^−1) [3]: −12.7 ± 0.9 cal mol^−1 K^−1
- ΔH ([3]; listed as RcSxph WT): -16.1 ± 0.2 kcal/mol
- protection of mice from STX poisoning [4]: protects mice from STX poisoning; also recorded: sufficient to protect mice completely from STX intoxication
- mitigation of TTX poisoning in mice [5]: unable to mitigate TTX poisoning
- adverse effects of RcSxph alone (female CD-1 mice): no detectable adverse effects
- Kd [6]: ~0.001 µM

B2: E540A: RcSxph STX binding pocket mutant E540A (protein)
chain: MAPTFQTALFFTIISLSFAAPNAKQVRWCAISDLEQKKCNDLVGSCNVPDITLVCVLRSSTEDCMTAIKDGQADAMFLDSGEVYEASKDPYNLKPIIAEPYSSNRDLQKCLKERQQALAKKMIGHYIPQCDEKGNYQPQQCHGSTGHCWCVNAMGEKISGTNTPPGQTRATCERHELPKCLKERQVALGGDEKVLGRFVPQCDEKGNYEPQQFHGSTGYSWCVNAIGEEIAGTKTPPGKIPATCQKHDLVTTCHYAVAMVKKSSAFQFNQLKGKRSCHSGVSKTDGWKALVTVLVEKKLLSWDGPAKESIQRAMSKFFSVSCIPGATQTNLCKQCKGEEGKNCKNSHDEPYYGNYGAFRCLKEDMGDVAFLRSTALSDEHSEVYELLCPDNTRKPLNKYKECNLGTVPAGTVVTRKISDKTEDINNFLMEAQKRQCKLFSSAHGKDLMFDDSTLQLALLSSEVDAFLYLGVKLFHAMKALTGDAHLPSKNKVRWCTINKLEKMKCDDWSAVSGGAIACTEASCPKGCVKQILKGEADAVKLEVQYMYEALMCGLLPAVAEYHNKDDFGPCKTPGSPYTDFGTLRAVALVKKSNKDINWNNIKGKKSCHTGVGDIAGWVIPVSLIRRQNDNSDIDSFFGESCAPGSDTKSNLCKLCIGDPKNSAANTKCSLSDKEAYYGNQGAFRCLVEKGDVAFVPHTVVFENTDGKNPAVWAKNLKSEDFELLCLDGSRAPVSNYKSCKLSGIPPPAIVTREESISDVVRIVANQQSLYGRKGFEKDMFQLFSSNKGNNLLFNDNTQCLITFDRQPKDIMEDYFGKPYYTTVYGASRSAMSSELISACTIKHC
- ΔTm (STX-induced change of melting temperature) [1]: complete loss of the thermal shift
- Kd ([7]; 1 nM F-STX, 25° C., errors S.D.): 15.3 ± 4.13 µM
- Kd ([7]; F-STX): 15.3 µM
- ΔΔG ([7]; ΔΔG = RT ln(Kd mutant or XSxph/Kd RcSxph), T = 298K, FP with F-STX): 4.52 kcal/mol
- Effective Rescue Ratio50 (ERR50) [8]: eliminated
